Assay results taken from patent US20030219825A1.

Target: melanocortin-1 receptor (MC1R) (human) (UniProt Q01726)
Assay: cell-based or functional assay
Settings: scale: response value

Sequence of UniProt Q01726 (Q01726 whole entry): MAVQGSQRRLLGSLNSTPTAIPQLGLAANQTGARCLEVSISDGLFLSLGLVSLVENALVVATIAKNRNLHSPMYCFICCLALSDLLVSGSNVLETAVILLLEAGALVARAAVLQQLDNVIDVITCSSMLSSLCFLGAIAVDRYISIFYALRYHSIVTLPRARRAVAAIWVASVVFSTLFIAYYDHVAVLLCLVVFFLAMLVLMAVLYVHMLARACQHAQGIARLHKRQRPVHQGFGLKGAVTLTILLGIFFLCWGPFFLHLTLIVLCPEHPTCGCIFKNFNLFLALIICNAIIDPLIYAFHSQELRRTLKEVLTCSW

Substance: 4-L-norleucine-7-D-phenylalanine-alpha melanocyte stimulating hormone (from UniProt P01189 138-150) (peptide)
- maximal response value (z value minus background z value, luminescence, 6xCRE-luciferase reporter lawn): 25
